Where no end group is shown, it is not given here. The star is where a group is joined. FITC = O=C1OC2(c3ccc(O)cc3Oc3cc(O)ccc32)c2ccc(NC(=S)*)cc21; Ahx = NCCCCCC(=O)O

The target in assay [1] is T1, recombinant human EGFR/Fc chimera (rhEGFR, R&D Systems) (human, UniProt P00533 25-645).
T1 construct: Bought reagent; Coated on the plate at 1 ug/well; also called genetically modified EGFR protein; not shown: human IgG1 Fc moiety of the chimera
In words: phage binding to plate-coated protein, titer ratio. As to the method: After removal of the blocking buffer, the wells were washed with 200 μl of 0.5% TBST being the washing solution three times and thereto was finally added 100 μl of 0.5% TBST. […] In the reaction, the mixture was gently shaken at room temperature for 1 hour. The reaction solution was removed and the wells were washed with 200 μl of 0.5% TBST ten times, 100 μl of 0.2 M glycine-HCl (pH 2.2) was added to the wells and stirred by pipetting, thereafter gently shaking at room temperature for 10 minutes. The eluate was collected to a microtube from the wells and added with 15 μl of 1 M Tris-HCl (pH 9.1) to be neutralized and a target binding phage solution was thus obtained. The binding ability of the collected phage was examined by a measurement of a titer.
A rhEGFR that is a target protein, a recombinant human ErbB2(rhErbB2, PROSPEC) as a HER2 protein belonging to the ErbB family same as an EGFR, are combinant human IGF-1R, CF(rhIGF-1R, R&D Systems) as an IGF-1R protein that is one of extracellular proteins were added to a 96-well microplate to be 1 μg/well, and stood still at 4° C. overnight to be thus formed into a solid phase. A protein solution was removed, 300 μl of a blocking buffer was added and the mixture was incubated at 37° C. for 1 hour to thus block the wells. After removal of the blocking buffer, the wells were washed three times with 200 μl of 0.5% TBST washing solution, and finally 100 μl of 0.5% TBST was added thereto. […] In the reaction, the mixture was gently shaken at room temperature for 1 hour. The reaction solution was removed, the wells were washed with 200 μl of 0.5% TEST ten times, and 100 μl of 0.2 M glycine-HCl (pH 2.2) was then added to the wells and stirred by pipetting, thereafter gently shaking at room temperature for 10 minutes. The eluate was collected to a microtube from the wells and added with 15 μl of 1 M Tris-HCl (pH 9.1) to be neutralized and a target binding phage solution was thus obtained.

For assay [2], the target named is T2, EGFR expressed by A-431 cells (human, UniProt P00533 25-1210).
T2 construct: whole, on cells; also called EGFR expressed by cells
In words: confocal fluorescence microscopy of A-431 cells with 100 µM FITC-labeled peptide.
Experimental: A-431 cells were inoculated in a glass bottom dish to be 20×10⁴ cells/dish and MCF7 cells were inoculated in a glass bottom dish to be 75×10⁴ cells/dish, and cultured at 37° C. in the condition of CO₂ for 24 hours. After culturing each kind of the cells for a specified time, EGF was added to have a concentration of 100 ng/mL and the mixture was cultured for 6 days. Thereafter, the culture solution in the dish was removed and washed with 1000 μL of a growth medium at 37° C. ten times. […] A staining fluid was removed and washed with 1 mL of a growth medium at 37° C. three times and thereto was finally added 1 mL of the medium. For observation, fluorescent observation was carried out by irradiating an exciting light laser with a wavelength of 488 nm using a confocal microscope (Leica SP2).

Assay [3] has as its target T2, EGFR expressed by A-431 cells. In words: phage binding to A-431 cells at 4 °C, titer ratio corrected for the number of collected cells.
Experimental: A-431 cells were inoculated in a 6-well culture plate at 40×10⁴ cells/well and cultured at 37° C. in the condition of 5% CO₂ overnight. The plate was incubated at 4° C. for 30 minutes and a medium in each well was removed, and treated by washing with 1 mL of 1% BSA/PBS twice. […] After the reaction, the reaction solution was removed and washed with 1 mL of 1% BSA/PBS ten times to remove non-binding phages. Thereto was added 100 μl of a 0.05% trypsin/0.53 mM EDTA solution and the reaction solution was incubated at 37° C. for about 10 minutes and added with 900 μl of a growth medium to prepare a collected phage solution. A titer of each collected phage solution was measured.
For assay [4], the target named is T1, recombinant human EGFR/Fc chimera …. Description: substituted phage binding to plate-coated rhEGFR, titer ratio. As to the method: A rhEGFR that is a target protein was added to a 96-well microplate to be 1 μg/well, and stood still at 4° C. overnight to be thus formed into a solid phase. A protein solution was removed, 300 μl of a blocking buffer (5 mg/mL BSA/TBS) was added and the mixture was incubated at 37° C. for 1 hour to thus block the wells. After removal of the blocking buffer, the wells were washed with 200 μl of 0.5% TBST (0.5% Tween20/TBS) being the washing solution three times and thereto was finally added 100 μl of 0.5% TEST. An amplification phage solution was added to the above described wells to have 1×10¹⁰ PFU and mixed by pipetting. In the reaction, the mixture was gently shaken at room temperature for 1 hour. The reaction solution was removed and the wells were washed with 200 μl of 0.5% TBST ten times, 100 μl of 0.2 M glycine-HCl (pH 2.2) was then added to the wells and stirred by pipetting, thereafter gently shaking at room temperature for 10 minutes. The eluate was collected to a microtube from the wells and added with 15 μl of 1 M Tris-HCl (pH 9.1) to be neutralized and a target binding phage solution was thus obtained. The binding ability of the collected phage was examined by a measurement of a titer.

B1: I-1012 phage (peptide displayed phage from the D12 library) (peptide, not shown: large carriers)
peptide: FHDWLPEVSPPD
notes: tested as phage particles
Take B1: in assay [1], the “fold binding to rhEGFR over binding to BSA” value (“fold binding … to BSA” for short) was 3100 times, the “fold binding to rhEGFR over binding to rhErbB2” value (“fold binding … to rhErbB2” below) was 1580 times, the “fold binding to rhEGFR over binding to rhIGF-1R” value (shortened to “fold binding … to rhIGF-1R”) worked out at 4340 times and the “fold binding to rhEGFR over binding to rhIgG1” value (from here on “fold binding … to rhIgG1”) was determined as 3420 times.

B2: I-1015 phage (peptide displayed phage from the D12 library) (peptide, not shown: large carriers)
peptide: LHQSEWMYVDIH
notes: tested as phage particles
Regarding B2, in assay [1], the “fold binding … to BSA” value was 14000 times, the “fold binding … to rhErbB2” value was 4740 times, the “fold binding … to rhIGF-1R” value turned out to be 7710 times and the “fold binding … to rhIgG1” value is 19000 times.

B3: Pep055-F (FITC-labeled Pep055) (peptide)
peptide: {FITC-Ahx}-WHLSDLWQNAWH
Consider B3, for which, in assay [2], the binding result is given as “binds”.

B4: I-1010 phage (peptide displayed phage from the D12 library) (peptide, not shown: large carriers)
peptide: WHLSDLWQNAWH
notes: tested as phage particles, 1x10^10 PFU per well
On to B4, for which the “fold titer ratio over that of the M13KE phage” value in assay [3] was 45 times. In assay [1], the “fold binding … to BSA” value came to 3810 times, the “fold binding … to rhErbB2” value came out at 1760 times, the “fold binding … to rhIGF-1R” value was 2830 times and the “fold binding … to rhIgG1” value is 1660 times.

B5: I-1010 amino acid substituted phage, 7th W substituted with F (peptide, not shown: large carriers)
peptide: WHLSDLFQNAWH
notes: also called W7F
Regarding B5, the binding result in assay [4] was “binds”.

B6: I-1010 amino acid substituted phage, 1st W substituted with F (peptide, not shown: large carriers)
peptide: FHLSDLWQNAWH
notes: also called W1F
B6: the binding result in assay [4] was “binds”.

B7: I-1010 phage in which the 1st W was substituted with F and the 8th Q was substituted with A (peptide, not shown: large carriers)
peptide: FHLSDLWANAWH
notes: Phage with two substituted amino acids; also called W1F/Q8A
As for B7, the binding result in assay [4] is “binds”.

B8: I-1010 phage in which the 3rd L was substituted with M and the 8th Q was substituted with A (peptide, not shown: large carriers)
peptide: WHMSDLWANAWH
notes: Phage with two substituted amino acids; also called L3M/Q8A
Take B8: the binding result in assay [4] was “binds”.

B9: I-1010 amino acid substituted phage, 3rd L substituted with M (peptide, not shown: large carriers)
peptide: WHMSDLWQNAWH
notes: also called L3M
Consider B9, for which the binding result in assay [4] is listed as “binds”.

B10: I-1010 amino acid substituted phage, 3rd L substituted with V (peptide, not shown: large carriers)
peptide: WHVSDLWQNAWH
notes: also called L3V
Take B10: the binding result in assay [4] is recorded as “binds”.

B11: I-1010 amino acid substituted phage, 7th W substituted with Y (peptide, not shown: large carriers)
peptide: WHLSDLYQNAWH
notes: also called W7Y
Turning to B11, the binding result in assay [4] was “binds”.

B12: I-1010 amino acid substituted phage, 3rd L substituted with I (peptide, not shown: large carriers)
peptide: WHISDLWQNAWH
notes: also called L3I
B12: the binding result in assay [4] is listed as “binds”.
